Data reported in patent EP4595979A1 (SystImmune, Inc., dated 2024).

Target: T1, Trop2 (human, UniProt P09758 27-323)
T1 sequence (looked up): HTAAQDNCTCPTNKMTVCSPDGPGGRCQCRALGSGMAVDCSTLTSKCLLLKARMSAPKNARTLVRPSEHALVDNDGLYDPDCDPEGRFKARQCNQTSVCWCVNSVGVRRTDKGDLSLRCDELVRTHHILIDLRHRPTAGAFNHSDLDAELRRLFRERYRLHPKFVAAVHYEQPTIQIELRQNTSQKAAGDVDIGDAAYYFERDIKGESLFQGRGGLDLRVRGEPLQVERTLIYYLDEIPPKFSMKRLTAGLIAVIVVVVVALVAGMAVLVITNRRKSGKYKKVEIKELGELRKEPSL
Assay: cell-based or functional assay

B1: ADC-1-1a (antibody, human IgG1, kappa, DAR 7.59)
heavy: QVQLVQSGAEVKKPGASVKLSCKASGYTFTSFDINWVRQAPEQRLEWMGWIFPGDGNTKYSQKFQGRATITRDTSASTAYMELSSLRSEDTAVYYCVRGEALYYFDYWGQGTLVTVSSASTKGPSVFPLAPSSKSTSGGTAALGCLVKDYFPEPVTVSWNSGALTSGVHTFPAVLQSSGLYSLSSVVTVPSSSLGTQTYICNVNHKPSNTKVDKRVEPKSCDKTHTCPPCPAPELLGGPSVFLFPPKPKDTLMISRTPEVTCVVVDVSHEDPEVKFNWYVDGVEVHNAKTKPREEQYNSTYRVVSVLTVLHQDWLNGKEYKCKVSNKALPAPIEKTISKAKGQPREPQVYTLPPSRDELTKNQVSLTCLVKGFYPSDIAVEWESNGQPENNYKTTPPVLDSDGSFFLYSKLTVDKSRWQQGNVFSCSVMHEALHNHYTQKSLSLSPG
light: DIQMTQSPSSLSASVGDRVTITCRASQDINKYLAWYQQKPGKVPKLLIYSTSTLQSGVPSRFSGSGSGTDFTLTISSLQPEDVATYYCLQYDDLFTFGQGTKLEIKRTVAAPSVFIFPPSDEQLKSGTASVVCLLNNFYPREAKVQWKVDNALQSGNSQESVTEQDSKDSTYSLSSTLTLSKADYEKHKVYACEVTHQGLSSPVTKSFNRGEC
modifications: linker-payload LP-1a on a cysteine thiol of the reduced interchain disulfide (general step A); residue not stated; linker-payload LP-1a (auristatin E derivative) on cysteine thiols of the fully reduced interchain disulfides (general step A); residues not stated; average DAR 7.59
IC50 (nM), in vitro cytotoxicity (120h), MTS cell viability, A431 cells (Trop2 positive): 0.01 nM
IC50 (nM), in vitro cytotoxicity (120h), MTS cell viability, BxPC-3 cells (Trop2 positive): 0.02 nM
IC50 (nM), in vitro cytotoxicity (120h), MTS cell viability, NCI-N87 cells (Trop2 positive): 0.36 nM

B2: ADC-C-1a (antibody, human IgG1, kappa, DAR 7.34)
heavy: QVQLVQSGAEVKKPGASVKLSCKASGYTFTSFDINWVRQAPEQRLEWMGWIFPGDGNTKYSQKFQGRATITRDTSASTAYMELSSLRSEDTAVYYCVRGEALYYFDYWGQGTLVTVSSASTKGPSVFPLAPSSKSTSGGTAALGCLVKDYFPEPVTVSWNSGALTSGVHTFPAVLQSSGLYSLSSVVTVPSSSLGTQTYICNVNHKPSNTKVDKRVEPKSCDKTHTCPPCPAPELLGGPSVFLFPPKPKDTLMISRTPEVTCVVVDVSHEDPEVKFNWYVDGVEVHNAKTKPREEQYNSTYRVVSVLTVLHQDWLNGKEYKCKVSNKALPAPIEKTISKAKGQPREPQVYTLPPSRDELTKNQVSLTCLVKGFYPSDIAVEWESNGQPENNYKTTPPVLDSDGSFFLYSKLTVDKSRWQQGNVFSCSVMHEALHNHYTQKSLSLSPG
light: B1 light
modifications: VcMMAE on a cysteine thiol of the reduced interchain disulfide (general step A); residue not stated; VcMMAE (MC-VC-PAB-MMAE) on cysteine thiols of the fully reduced interchain disulfides (general step A); residues not stated; average DAR 7.34
IC50 (nM), in vitro cytotoxicity (120h), MTS cell viability, A431 cells (Trop2 positive): 0.02 nM
IC50 (nM), in vitro cytotoxicity (120h), MTS cell viability, BxPC-3 cells (Trop2 positive): 0.04 nM
IC50 (nM), in vitro cytotoxicity (120h), MTS cell viability, NCI-N87 cells (Trop2 positive): 0.63 nM

B3: ADC-2-1a (antibody, human IgG1, kappa, DAR 7.31)
heavy: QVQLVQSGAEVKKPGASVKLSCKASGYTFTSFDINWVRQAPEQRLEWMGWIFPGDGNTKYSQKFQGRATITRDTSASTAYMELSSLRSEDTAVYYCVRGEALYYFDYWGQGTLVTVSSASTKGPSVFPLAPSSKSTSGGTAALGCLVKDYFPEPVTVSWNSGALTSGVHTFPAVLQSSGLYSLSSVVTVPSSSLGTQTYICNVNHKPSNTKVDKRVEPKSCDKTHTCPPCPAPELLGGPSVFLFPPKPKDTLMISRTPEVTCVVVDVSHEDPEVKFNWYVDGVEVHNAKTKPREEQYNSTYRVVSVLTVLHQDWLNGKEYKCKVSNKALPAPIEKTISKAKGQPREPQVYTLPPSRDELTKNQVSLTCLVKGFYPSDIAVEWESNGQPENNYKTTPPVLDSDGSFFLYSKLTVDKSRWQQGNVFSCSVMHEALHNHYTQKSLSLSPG
light: B1 light
modifications: one linker-payload LP-2a on each light chain, maleimide partly ring-opened; residue not stated; linker-payload LP-2a (MMAE derivative) on cysteine thiols of the fully reduced interchain disulfides (general step A); residues not stated; average DAR 7.31
IC50 (nM), in vitro cytotoxicity (120h), MTS cell viability, A431 cells (Trop2 positive): 0.005 nM
IC50 (nM), in vitro cytotoxicity (120h), MTS cell viability, BxPC-3 cells (Trop2 positive): 0.02 nM
IC50 (nM), in vitro cytotoxicity (120h), MTS cell viability, NCI-N87 cells (Trop2 positive): 0.35 nM

B4: ADC-1-2a (antibody, human IgG1, kappa, DAR 1.79)
heavy: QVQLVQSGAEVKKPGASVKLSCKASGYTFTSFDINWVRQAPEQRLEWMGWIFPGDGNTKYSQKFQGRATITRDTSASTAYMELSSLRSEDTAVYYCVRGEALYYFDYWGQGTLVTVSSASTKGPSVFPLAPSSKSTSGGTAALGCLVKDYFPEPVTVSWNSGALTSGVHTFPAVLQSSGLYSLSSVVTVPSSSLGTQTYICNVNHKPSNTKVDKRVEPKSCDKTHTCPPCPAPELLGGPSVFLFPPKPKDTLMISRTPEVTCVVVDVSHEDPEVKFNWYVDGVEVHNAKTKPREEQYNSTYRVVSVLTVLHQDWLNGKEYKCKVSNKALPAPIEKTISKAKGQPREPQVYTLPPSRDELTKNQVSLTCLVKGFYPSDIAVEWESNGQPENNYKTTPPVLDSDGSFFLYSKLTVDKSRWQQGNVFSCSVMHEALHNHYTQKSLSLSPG
light: DIQMTQSPSSLSASVGDRVTITCRASQDINKYLAWYQQKPGKVPKLLIYSTSTLQSGVPSRFSGSGSGTDFTLTISSLQPEDVATYYCLQYDDLFTFGQGTKLEIKRTVAAPSVFIFPPSDEQLKSGTASVVCLLNNFYPREAKVQWKVDNALQSGNSQESVTEQDSKDSTYSLSSTLTLSKADYEKHKVYACEVTHQGLSSPVCTKSFNRGEC
modifications: linker-payload LP-1a conjugated site-specifically after partial reduction (general step B), average DAR 1.79; chain and residue not stated
IC50 (nM), in vitro cytotoxicity (120h), MTS cell viability, A431 cells (Trop2 positive): 0.05 nM
IC50 (nM), in vitro cytotoxicity (120h), MTS cell viability, BxPC-3 cells (Trop2 positive): 0.25 nM
IC50 (nM), in vitro cytotoxicity (120h), MTS cell viability, NCI-N87 cells (Trop2 positive): 2.6 nM

B5: ADC-C-2a (antibody, human IgG1, kappa, DAR 1.85)
heavy: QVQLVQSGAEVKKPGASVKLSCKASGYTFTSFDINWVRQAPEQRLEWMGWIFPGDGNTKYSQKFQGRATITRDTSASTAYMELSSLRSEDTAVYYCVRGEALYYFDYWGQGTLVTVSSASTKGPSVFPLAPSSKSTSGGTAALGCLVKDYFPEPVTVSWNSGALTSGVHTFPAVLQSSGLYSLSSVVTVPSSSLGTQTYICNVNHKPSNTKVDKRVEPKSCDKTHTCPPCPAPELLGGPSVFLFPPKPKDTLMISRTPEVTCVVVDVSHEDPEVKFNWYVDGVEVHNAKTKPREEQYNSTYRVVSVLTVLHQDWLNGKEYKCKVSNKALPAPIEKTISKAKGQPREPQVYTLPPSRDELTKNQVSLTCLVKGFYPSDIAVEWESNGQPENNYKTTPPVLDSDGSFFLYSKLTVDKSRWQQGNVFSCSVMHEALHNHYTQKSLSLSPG
light: B4 light
modifications: VcMMAE conjugated site-specifically after partial reduction (general step B), average DAR 1.85; chain and residue not stated
IC50 (nM), in vitro cytotoxicity (120h), MTS cell viability, A431 cells (Trop2 positive): 0.32 nM
IC50 (nM), in vitro cytotoxicity (120h), MTS cell viability, BxPC-3 cells (Trop2 positive): 0.87 nM
IC50 (nM), in vitro cytotoxicity (120h), MTS cell viability, NCI-N87 cells (Trop2 positive): 4.9 nM

B6: ADC-2-2a (antibody, human IgG1, kappa, DAR 1.81)
heavy: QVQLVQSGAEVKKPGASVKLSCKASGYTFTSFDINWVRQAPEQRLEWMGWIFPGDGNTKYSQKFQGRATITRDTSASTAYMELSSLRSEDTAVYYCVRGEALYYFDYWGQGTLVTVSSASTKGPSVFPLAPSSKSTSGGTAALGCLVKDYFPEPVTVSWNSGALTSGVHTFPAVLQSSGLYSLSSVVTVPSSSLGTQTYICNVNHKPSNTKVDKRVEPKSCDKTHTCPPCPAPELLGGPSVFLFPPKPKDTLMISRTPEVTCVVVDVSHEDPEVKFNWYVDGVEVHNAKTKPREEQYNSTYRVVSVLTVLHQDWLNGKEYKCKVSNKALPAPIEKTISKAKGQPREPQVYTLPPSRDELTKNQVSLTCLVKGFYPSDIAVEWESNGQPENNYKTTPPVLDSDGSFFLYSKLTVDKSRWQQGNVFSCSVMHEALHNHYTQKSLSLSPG
light: B4 light
modifications: linker-payload LP-2a conjugated site-specifically after partial reduction (general step B), average DAR 1.81; chain and residue not stated
IC50 (nM), in vitro cytotoxicity (120h), MTS cell viability, A431 cells (Trop2 positive): 0.11 nM
IC50 (nM), in vitro cytotoxicity (120h), MTS cell viability, BxPC-3 cells (Trop2 positive): 0.46 nM
IC50 (nM), in vitro cytotoxicity (120h), MTS cell viability, NCI-N87 cells (Trop2 positive): 4.7 nM
